Measurements taken from publication PMC10516627 (Nucleic Acids Research, 2023).

B1: His-HDAC6 DAC1 domain (1-440 aa) (domain or fragment, human, UniProt Q9UBN7 1-440, looked up)
chain: MTSTGQDSTTTRQRRSRQNPQSPPQDSSVTSKRNIKKGAVPRSIPNLAEVKKKGKMKKLGQAMEEDLIVGLQGMDLNLEAEALAGTGLVLDEQLNEFHCLWDDSFPEGPERLHAIKEQLIQEGLLDRCVSFQARFAEKEELMLVHSLEYIDLMETTQYMNEGELRVLADTYDSVYLHPNSYSCACLASGSVLRLVDAVLGAEIRNGMAIIRPPGHHAQHSLMDGYCMFNHVAVAARYAQQKHRIRRVLIVDWDVHHGQGTQFTFDQDPSVLYFSIHRYEQGRFWPHLKASNWSTTGFGQGQGYTINVPWNQVGMRDADYIAAFLHVLLPVALEFQPQLVLVAAGFDALQGDPKGEMAATPAGFAQLTHLLMGLAGGKLILSLEGGYNLRALAEGVSASLHTLLGDPCPMLESPGAPCRSAQASVSCALEALEPFWEVLVR
B2: His-HDAC6 DAC2 domain (441-835 aa) (domain or fragment, human, UniProt Q9UBN7 441-835, looked up)
chain: STETVERDNMEEDNVEESEEEGPWEPPVLPILTWPVLQSRTGLVYDQNMMNHCNLWDSHHPEVPQRILRIMCRLEELGLAGRCLTLTPRPATEAELLTCHSAEYVGHLRATEKMKTRELHRESSNFDSIYICPSTFACAQLATGAACRLVEAVLSGEVLNGAAVVRPPGHHAEQDAACGFCFFNSVAVAARHAQTISGHALRILIVDWDVHHGNGTQHMFEDDPSVLYVSLHRYDHGTFFPMGDEGASSQIGRAAGTGFTVNVAWNGPRMGDADYLAAWHRLVLPIAYEFNPELVLVSAGFDAARGDPLGGCQVSPEGYAHLTHLLMGLASGRIILILEGGYNLTSISESMAACTRSLLGDPPPLLTLPRPPLSGALASITETIQVHRRYWRSLR

Target: GST-RNF168 (human, UniProt Q8IYW5 1-571)
Sequence (Q8IYW5 whole entry): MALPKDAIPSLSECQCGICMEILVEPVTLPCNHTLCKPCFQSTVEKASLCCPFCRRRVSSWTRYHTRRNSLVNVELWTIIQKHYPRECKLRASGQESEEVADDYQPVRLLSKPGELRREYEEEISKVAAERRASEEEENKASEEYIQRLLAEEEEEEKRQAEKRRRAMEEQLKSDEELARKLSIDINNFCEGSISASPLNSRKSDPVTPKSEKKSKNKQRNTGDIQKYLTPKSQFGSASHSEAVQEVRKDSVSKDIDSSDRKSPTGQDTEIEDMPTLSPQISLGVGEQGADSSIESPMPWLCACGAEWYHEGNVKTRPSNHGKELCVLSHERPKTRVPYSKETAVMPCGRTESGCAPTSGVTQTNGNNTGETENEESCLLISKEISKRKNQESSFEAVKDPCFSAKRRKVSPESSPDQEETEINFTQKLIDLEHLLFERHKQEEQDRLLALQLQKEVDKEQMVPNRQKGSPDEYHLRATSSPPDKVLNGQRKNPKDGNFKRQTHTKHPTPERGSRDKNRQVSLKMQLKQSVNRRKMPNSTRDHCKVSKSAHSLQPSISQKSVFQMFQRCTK
Assay: pull-down

Binder	binding result
B1	binds
B2	binds
